# Reference: patent US20110105397A1, “METHOD FOR TREATING HEART FAILURE WITH STRESSCOPIN-LIKE PEPTIDES” (priority 2009, published 2011)
# Like-named read-outs stand apart in the source and are kept apart here. Where no end group is shown, it is not given here.
# T1: CRHR1 (Homo sapiens, UniProt P34998)
# T1 sequence (P34998 24-415): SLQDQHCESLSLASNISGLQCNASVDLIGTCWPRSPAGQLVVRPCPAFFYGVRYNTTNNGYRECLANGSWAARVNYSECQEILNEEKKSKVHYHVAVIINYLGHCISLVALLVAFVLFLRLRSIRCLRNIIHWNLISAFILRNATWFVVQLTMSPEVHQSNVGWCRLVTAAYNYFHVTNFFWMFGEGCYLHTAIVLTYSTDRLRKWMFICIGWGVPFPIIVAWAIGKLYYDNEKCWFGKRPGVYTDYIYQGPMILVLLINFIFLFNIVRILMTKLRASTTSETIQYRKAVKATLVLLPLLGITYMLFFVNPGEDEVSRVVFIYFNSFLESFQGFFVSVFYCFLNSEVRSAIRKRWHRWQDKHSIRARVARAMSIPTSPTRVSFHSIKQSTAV
# T2: human CRHR2 (Homo sapiens, UniProt Q13324)
# T2 construct: expressed in transfected cells
# T2 sequence (Q13324 1-411): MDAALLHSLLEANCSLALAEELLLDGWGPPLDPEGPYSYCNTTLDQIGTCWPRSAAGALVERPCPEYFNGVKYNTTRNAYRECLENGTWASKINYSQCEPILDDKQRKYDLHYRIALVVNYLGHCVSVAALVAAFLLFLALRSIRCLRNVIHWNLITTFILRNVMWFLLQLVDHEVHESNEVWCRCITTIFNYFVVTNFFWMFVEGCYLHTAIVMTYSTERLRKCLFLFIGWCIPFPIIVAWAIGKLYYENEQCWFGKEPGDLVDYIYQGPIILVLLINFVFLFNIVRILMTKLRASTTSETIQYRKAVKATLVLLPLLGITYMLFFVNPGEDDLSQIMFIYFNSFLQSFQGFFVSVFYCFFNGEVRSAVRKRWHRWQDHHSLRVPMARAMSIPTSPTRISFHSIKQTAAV
# T3: human corticotrophin releasing hormone receptor type 2 (CRHR2) (human) (UniProt Q13324)
# T3 sequence (looked up): T2 sequence (Q13324 1-411)
# T4: human corticotrophin releasing hormone receptor type 1 (CRHR1) (human, UniProt P34998 24-415)
# T4 sequence (looked up): T1 sequence (P34998 24-415)
# T5: human corticotrophin releasing hormone receptor type 1 (CRHR1) (human), P34998
# T5 chain: T1 sequence (P34998 24-415)
# T6: human corticotrophin releasing hormone receptor type 2 (CRHR2) (human, UniProt Q13324 1-411)
# T6 sequence (looked up): T2 sequence (Q13324 1-411)
# B1: Human stresscopin with amidated C-terminus (peptide)
# peptide: TKFTLSLDVPTNIMNLLFNIAKAKNLRAQAAANAHLMAQI-NH2
# notes: 40-amino-acid peptide; also called h-SCP
# Key:
# CRHR1 = biological target: T1, CRHR1; experiment: CRHR1 radioligand binding, [125I]-(Tyr0)-sauvagine; set-up: host or cells: cell membranes
# Source text: The solution was then homogenized with a Polytron tissue grinder at a setting of 10 and 7×3 s (Brinkmann Instruments, Westbury, N.Y.). […] The bound radioactivity was separated by filtration using a Multiscreen Resist manifold (Millipore Corp., Billerica, Mass., U.S.A). The filters were washed three times with ice-cold PBS at pH 7.5 and radioactivity retained on the filters was quantified by its liquid scintillation measured by a TopCount counter (Packard BioScience, Boston, Mass., U.S.A). All experiments were performed in triplicate.
# [1] = system: anaesthetized male Sprague-Dawley rats; experiment: Hemodynamics in anaesthetized rats (IV bolus); type: in vivo, rat; details: healthy anaesthetized rats
# Procedure: The hemodynamic profile of h-SCP (SEQ ID NO:1) was determined in sodium pentobarbital anaesthetized male Sprague-Dawley rats (FIG. 10). A SPR-320 Mikro-Tip® integrated catheter-tipped micro-manometer (Millar Instruments, Houston, Tex., U.S.A.) was placed in the right femoral artery for blood pressure measurements, and another one directly in the left ventricle for LV pressure measurement. […] The changes in hemodynamic parameters induced by h-SCP (SEQ ID NO:1, full circle in FIG. 10) were blocked by pretreatment with anti-sauvagine-30 (SEQ ID NO:118, open circle in FIG. 10).
# [2] = system: dogs with advanced heart failure; experiment: Hemodynamic, angiographic, echocardiographic profile in anaesthetized dogs with advanced heart failure, IV infusion; type: in vivo, dog
# Procedure: The effects of h-SCP (SEQ ID NO:1) on cardiovascular function were also assessed in anaesthetized dogs with advanced, irreversible heart failure of ischemic etiology (Sabbah et al., 1991, Am. J. Physiol., vol. 260, pp. H1379-H1384; Sabbah et al., 1994, Circulation, vol. 98, pp. 2852-2859; Chandler et al., 2002, Circ. Res., vol. 91, pp. 278-280). Progressive, advanced heart failure was produced in mongrel dogs by multiple sequential intracoronary microembolization with polystyrene latex microspheres. Dose infusions of 2.2, 4.3, and 7.3 ng/kg/min were administered intravenously over 60 minutes just following or just prior to hemodynamic, angiographic, echocardiographic, and Doppler measurements using conventional hemodynamic, angiographic, echocardiographic, and radiographic methods. The h-SCP polypeptide (SEQ ID NO:1) produced dose- (infusion-) dependent increases in LVEF and SV and decreases in left ventricular end diastolic pressure (LVEDP), left ventricular pressure during isovolumic relaxation (LV-dP/dt), systemic vascular resistance (SVR), and left ventricular end-systolic volume (LVESV) that correlated with plasma concentration. No significant change in heart rate, peak systolic aortic blood pressure, LV+dP/dt, mean pulmonary artery pressure, mean pulmonary artery wedge pressure, right atrial pressure, or myocardial oxygen consumption were recorded following any of the 1 hour intravenous infusions (Table 18 and FIGS. 12 A & B). The improvement in LV systolic and diastolic function was not associated with the development of de novo ventricular arrhythmias.
# In order to determine the threshold effective dose-infusion in dogs with advanced heart failure, a further study was performed at lower dose infusions. In addition, the opportunity was taken to explore whether the increase in LVEF produced by higher dose-infusions of 4.3 ng/kg/min would remain stable over a longer infusion period, i.e. 120 minutes.
# In order to understand the potential cardiovascular effects of neutralizing antibody formation to h-SCP (SEQ ID NO:1), SV30 (SEQ ID No. 118), a competitive antagonist of CRHR2, was administered to dogs (N=4) with advanced heart failure. […] These experiments with SV30 indicate that baseline cardiovascular parameters in dogs with advanced heart failure were not dependent upon endogenous hormone stimulation of CRHR2. Similar findings have been reported in healthy conscious and anaesthetized rats (Gardiner et al., J. Pharmacol. Exp. Ther., 2007, vol 321, pp. 221-226).
# human CRHR2 = biological target: T2, human CRHR2; experiment: CRHR2 radioligand binding, [125I]-anti-sauvagine-30, SK-N-MC membranes; details: CRHR2
# Procedure: The binding profile of h-SCP (SEQ ID NO:1) at CRHR2 was determined in radioligand binding studies in a membrane preparation of SK-N-MC cells stably transfected with human CRHR2 using [^125I]-anti-sauvagine-30 as the radiolabel. […] The solution was then homogenized with a Polytron tissue grinder at a setting of 10 and 7×3 s (Brinkmann Instruments, Westbury, N.Y.). […] The supernatant was re-centrifuged at 26,892×g for 25 min at 4° Celsius with the final pellet being re-suspended in assay buffer. […] For competition studies, cell membranes of […] volume were incubated with either 60 pM [^125I]-anti-sauvagine-30 in 50 μl volume for the CRHR2 assay or with)[^125I]-([…]-sauvagine for the CRHR1 assay in the presence of 15 μl of competing ligand for 120 min having a total volume of 150 μl. […] The bound radioactivity was separated by filtration using a Multiscreen Resist manifold (Millipore Corp., Billerica, Mass., U.S.A). The filters were washed three times with ice-cold PBS at pH 7.5 and radioactivity retained on the filters was quantified by its liquid scintillation measured by a TopCount counter (Packard BioScience, Boston, Mass., U.S.A). All experiments were performed in triplicate. Data from individual competition curves were expressed as the percentage of specific [^125I]-anti-sauvagine-30 or)[^125I]-([…]-sauvagine binding (B) within each experiment. […] The competition curve obtained with h-SCP (SEQ ID NO:1) was biphasic.
# [3] = biological target: T3, human corticotrophin releasing hormone receptor type 2 (CRHR2) (human); experiment: radioligand competition against [125I]-anti-sauvagine-30, CRHR2 membranes
# [4] = biological target: T3, human corticotrophin releasing hormone receptor type 2 (CRHR2) (human); experiment: cell-based or functional assay
# [5] = biological target: T4, human corticotrophin releasing hormone …; experiment: cell-based or functional assay
# [6] = biological target: T3, human corticotrophin releasing hormone receptor type 2 (CRHR2) (human); experiment: radioligand competition against [125I]-anti-sauvagine-30, membranes of SK-N-MC cells with human CRHR2
# [7] = biological target: T4, human corticotrophin releasing hormone …; experiment: radioligand competition against [125I]-(Tyr0)-sauvagine, CRHR1 assay, cell membranes
# Procedure: Frozen cell pellets were defrosted on ice in 15 ml of assay buffer that was composed of 10 mM HEPES, 130 mM NaCl, 4.7 mM KCl, 5 mM MgCl₂, and 0.089 mM bacitracin at pH 7.2 and 21±3° Celsius. The solution was then homogenized with a Polytron tissue grinder at a setting of 10 and 7×3 s (Brinkmann Instruments, Westbury, N.Y.). The homogenate was centrifuged at 4° Celsius at 800×g for 5 min with the pellet being discarded. The supernatant was re-centrifuged at 26,892×g for 25 min at 4° Celsius with the final pellet being re-suspended in assay buffer. All binding assays were conducted in 96-well Multiscreen GF/B filter plates (Millipore, Billericay, Mass., U.S.A.) that were pre-soaked in assay buffer with 0.3% PEI for 1 hour. […]
# The bound radioactivity was separated by filtration using a Multiscreen Resist manifold (Millipore Corp., Billerica, Mass., U.S.A). The filters were washed three times with ice-cold PBS at pH 7.5 and radioactivity retained on the filters was quantified by its liquid scintillation measured by a TopCount counter (Packard BioScience, Boston, Mass., U.S.A). […]
# Data from individual competition curves were expressed as the percentage of specific [¹²⁵I]-anti-sauvagine-30 or)[¹²⁵I]-(Tyr⁰-sauvagine binding (B) within each experiment.
# [8] = biological target: T3, human corticotrophin releasing hormone receptor type 2 (CRHR2) (human); experiment: cell-based or functional assay; remark: listed apart in the source
# [9] = biological target: T5, human corticotrophin releasing hormone …; experiment: radioligand competition against [125I]-(Tyr0)-sauvagine, CRHR1 assay, cell membranes; details: remark: other sources report otherwise
# [10] = biological target: T6, human corticotrophin releasing hormone …; experiment: cell-based or functional assay
# [11] = biological target: T6, human corticotrophin releasing hormone …; experiment: cell-based or functional assay; remark: listed apart in the source
molecule,measurement,setting,value
"CC[C@H](C)[C@H](NC(=O)[C@@H](NC(=O)[C@H](CC(=O)O)NC(=O)[C@H](CC(C)C)NC(=O)[C@H](CC(C)C)NC(=O)[C@H](CC(C)C)NC(=O)[C@H](CCCNC(=N)N)NC(=O)[C@H](CC(N)=O)NC(=O)[C@H](CC(N)=O)NC(=O)[C@H](C)NC(=O)[C@H](C)NC(=O)[C@H](CCC(N)=O)NC(=O)[C@H](CCC(N)=O)NC(=O)[C@H](CCCCN)NC(=O)[C@H](CCC(=O)O)NC(=O)[C@H](CCCCN)NC(=O)[C@H](CCC(=O)O)NC(=O)[C@H](CCC(N)=O)NC(=O)[C@H](CCCCN)NC(=O)[C@H](CCC(=O)O)NC(=O)[C@@H](NC(=O)[C@H](CCC(=O)O)NC(=O)[C@@H](NC(=O)[C@H](CCSC)NC(=O)[C@H](CCCCN)NC(=O)[C@H](CCCNC(=N)N)NC(=O)[C@H](CC(C)C)NC(=O)[C@H](CC(C)C)NC(=O)[C@H](Cc1c[nH]cn1)NC(=O)C(N)Cc1ccccc1)[C@@H](C)CC)[C@@H](C)CC)[C@@H](C)O)C(N)=O (stereo partly drawn) [SEQ ID NO: 118, FHLLRKMIEIEKQEKEKQQAANNRLLLDTI-NH2, reference compound]",nH,CRHR1,1.00 ± 0.49
same,effect on baseline hemodynamic parameters,[1],did not inhibit baseline parameters
same,effect on cardiovascular parameters,[2]; CRHR2 blocking doses in dogs with advanced heart failure (N=4),without effect on cardiovascular parameters
same,CO,"[2]; Table 20, AS-30 alone",1.44 ± 0.04 L/min
same,HR,"[2]; Table 20, AS-30 alone",79 ± 3 beats/min
same,LV+dP/dt,"[2]; Table 20, AS-30 alone",1675 ± 109 mmHg/sec
same,LVEDP,"[2]; Table 20, AS-30 alone",15 ± 1 mmHg
same,LVEDV,"[2]; Table 20, AS-30 alone",68 ± 2.7 mL
same,LVEF,"[2]; Table 20, AS-30 alone",27 ± 0%
same,LVESV,"[2]; Table 20, AS-30 alone",50 ± 1.9 mL
same,MPAP,"[2]; Table 20, AS-30 alone",16 ± 0.7 mmHg
same,PSAP,"[2]; Table 20, AS-30 alone",94 ± 5 mmHg
same,SV,"[2]; Table 20, AS-30 alone",18 ± 0.8 mL
same,nH,human CRHR2,1.15 ± 0.12
B1,pIC50 (low affinity state),[3],6.6 -log10(M)
same,"A50 (concentration required for 50% maximum effect), cAMP",[4],0.4 nM
same,control pA50 across assay batches,[4],9.47 to 9.74 -log10(M)
same,pA50,[4],9.4 -log10(M)
same,pA50,[5],< 5 -log10(M)
same,pKI,[6],5.71 -log10(M)
same,pKI,[7],4.6 -log10(M)
DDPPLSIDLTFHLLRTLLELARTQSQRERAEQNRIIFDSV-NH2 [r-UCN1],pA50,[8],9.08 -log10(M)
same,pA50,[5],9.19 -log10(M)
same,pKI,[6],8.51 -log10(M)
FTLSLDVPTNIMNLLFNIAKAKNLRAQAAANAHLMAQI-NH2 [human urocortin III],pKI,[9],4.96 -log10(M)
same,pA50,[4],9.26 -log10(M)
same,pA50,[5],< 5 -log10(M)
same,pKI,[6],6.49 -log10(M)
TKFTLSLDVPTNIMNLLFNIAKAKNLRAQAAANAHLMAQI-OH [non-amidated h-SCP],"fold decrease in potency against the amidated parent peptide, cAMP",[10],~200 fold
same,pA50,[11],7.1 -log10(M)
